T1: Claudin 9 (UniProt O95484 1-217)
T1 construct: Octet KD values: intact claudin protein embedded in virus-like particles (lipoparticles); also called CLDN9
T1 sequence (looked up): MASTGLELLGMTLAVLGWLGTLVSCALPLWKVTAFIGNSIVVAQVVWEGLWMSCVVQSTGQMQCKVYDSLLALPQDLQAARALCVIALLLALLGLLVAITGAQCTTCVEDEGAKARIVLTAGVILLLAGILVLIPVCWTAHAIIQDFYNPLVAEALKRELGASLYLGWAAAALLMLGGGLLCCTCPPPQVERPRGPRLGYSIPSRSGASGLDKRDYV

T2: Claudin 6 (human) (human, UniProt P56747 1-220)
T2 construct: Expressed on transfected HEK-293T cells or naturally on PA-1 cells for flow cytometry; For the Octet KD values it was the intact protein embedded in virus-like particles (lipoparticles); also called hsCLDN6; CLDN6
T2 chain: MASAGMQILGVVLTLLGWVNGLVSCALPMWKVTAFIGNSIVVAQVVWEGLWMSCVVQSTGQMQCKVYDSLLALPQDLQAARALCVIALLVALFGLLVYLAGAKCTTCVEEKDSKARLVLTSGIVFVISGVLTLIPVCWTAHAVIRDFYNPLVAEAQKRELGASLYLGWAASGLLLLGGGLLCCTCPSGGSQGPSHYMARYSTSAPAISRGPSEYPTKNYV

T3: Claudin 4 (UniProt O14493 1-209)
T3 construct: also called CLDN4
T3 sequence (looked up): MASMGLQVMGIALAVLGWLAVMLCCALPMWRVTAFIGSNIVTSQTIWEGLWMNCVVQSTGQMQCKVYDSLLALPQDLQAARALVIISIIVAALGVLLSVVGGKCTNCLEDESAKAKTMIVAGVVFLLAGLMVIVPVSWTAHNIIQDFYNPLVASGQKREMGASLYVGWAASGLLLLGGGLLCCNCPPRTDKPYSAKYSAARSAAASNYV

B1: IM171 (antibody, V domains shown)
VH: AVTLDESGGGLQTPGGALSLVCKASGFDFSSYAMNWVRQAPGKGLEWVAGIGSTGSSTGYGPAVKGRATISRDNGQSTLRLQLNNLRAEDTAIYYCAKSVGNGNSWSGYIATSIDAWGHGTEVIVSS
VL: ALTQPSSVSANLGGTVKLTCSGGSSGYGWYQQKSPGSAPVTVIYSNDKRPSDIPSRFSGSLSGSTGTLTITGVQADDEAVYFCGSTDNSYVGIFGAGTTLTVL
notes: Detected with anti-human IgG Fc secondary; also called LM171
B2: IM173 (antibody, V domains shown)
VH: AVTLDESGGGLQTPGGALSLVCKASGFTFSSYSMFWVRRAPGKGLEWVAGIDSGSTTFYGSAVKGRATISRDNGQSTVRLQLNNLRAEDTATYYCAKDAYGYCGWSGCSADSIDAWGHGTEVIVSS
VL: ALTQPSSVSANPGGTVEITCSGGNNYYGWYQQKSPGSAPVTVIYYNDKRPSDIPSRFSGSKSGSTGTLTITGVQADDEAVYFCGGWDSSGGIFGAGTTLTVL
notes: Detected with anti-human IgG Fc secondary

How the values were obtained:
Claudin 9 [1] = target: T1, Claudin 9; assay: biosensor (Forte Octet), intact claudin in virus-like particles (lipoparticles)
Protocol: (§1) Affinity of various antibodies against CLDN6 as compared to CLDN9, CLDN3, and CLDN4 was measured using a biosensor. Biosensor affinity measurement of the various antibodies against the proteins was determined using a Forte Octet, which was used for biosensor measurements, using intact claudin proteins embedded in virus-like particles (lipoparticles). The KD for different antibodies is shown below.

Claudin 6 (human) [2] = target: T2, Claudin 6 (human); assay: as above
Protocol: as §1

Claudin 4 = target: T3, Claudin 4; assay: flow cytometry, HEK-293T cells transiently transfected with the indicated claudin; pUC19 = empty vector control
Protocol: (§2) FIG. 2 illustrates the results of a binding assay showing that Claudin 6 MAbs bind to human Claudin 6 preferentially over other Claudin proteins. Human embryonic kidney 293T (HEK-293T) cells were transiently transfected with DNA for the indicated Claudin protein or empty vector along with GFP (pUC) for 22 hours.

Claudin 6 (human) [3] = target: T2, Claudin 6 (human); assay: flow cytometry, PA-1 cells naturally expressing Claudin-6
Claudin 9 [4] = target: T1, Claudin 9; assay: flow cytometry, HEK-293T cells transiently transfected with the indicated claudin; pUC19 = empty vector control
Protocol: as §2

| Binder | Kd (Claudin 9 [1]) [nM] | Kd (Claudin 6 (human) [2]) [nM] | binding result (Claudin 4) | EC50 (read off the curve) (Claudin 6 (human) [3]) [µg/mL] | binding result (Claudin 9 [4]) |
| --- | --- | --- | --- | --- | --- |
| B1 | 902 | 3 | no binding (tested: log [mAb] about -7.2 M) | ~2 |  |
| B2 |  | 0.32 |  |  | no binding (tested: log [mAb] about -7.2 M) |
